Assay: soluble fraction after stress (log2 fold change); higher = more stays soluble; pooled small domains, quantitative proteomics
Settings: stress: 75 degC
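Further: 20 min heating vs room temperature control held 20 min.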

| Sequence | soluble fraction (log2) |
| --- | --- |
| HMKNESLMLPRDIDYSRVHGLSNEAIQKLQDALPQSLGQASRIEGITPATLSLLLLYLKKNNKRI | -0.00281 |
| HMKNHSTFKSVLSNIEFPINERISGHAIQNPILGLIKADHPNFSSDQYIAISELNFYREKYISNYLLTEI | -3.67 |
| HMKNKIYGTIVSSTSGEETVYKVFQVDSSKDITYLFRPDMIRLAHENNQALEFNEETGRGKRIEMSDLPK | -0.106 |
| HMKNLHLVPNVVGMSAKEAKNTLKSFNIKYKPIYGSSNKYDENYIFNQNPRKGKTIKEQEVVTIYISRGAD | -1.42 |
| HMKNNNIIFSEFLKEVENGRVVEVRIQGNNIQGIMSNGKEFTTYSPNYPNLIEKLTETGVSISAAPL | 0.434 |
| HMKNPLIIGMTKDKIIELIGMPDNIKFLDSSLSKSEVWNYDKFGKKLYIKDEKLYQIENIEE | 0.0985 |
| HMKNSAAKETILAFLKKNGGELFTQMQIIEKFQKMIPAPVLRITLEELLNKGQVEITSKGKYYLSVKGS | -2.08 |
| HMKNSKIVIQKRHNHILELLKQNRTMDVTVLAERLGVTGATIRRDLKKLEQEGTIVRSFGKVSFVG | -2.18 |
| HMKNTVGEYRKLKSTTILYSNSDLTGTKYTYLPNTTVKILKNISSTVDYVYIKATNRYAYINIYAYT | -2.69 |
| HMKNVENIILEQLKKNIYDDLNNASFEEIILIDAEKSIYKGTIKANYIEYNFKINLSTGEILKWKLK | -1.95 |
| HMKNVSVKMILSPESLGEIQVDLVFSKGKDLEIMLRPETAEVAKLIQSNSASLREQLSLEHKGPLSLNVS | -0.32 |
| HMKNYALHEPMMDRIAKVNALYDAGHTIKYMTARGAVSMVDYYDLTKSQLDSWGAKYHELSVGK | 0.12 |
| HMKNYYEVLGVPRDAAAPDIKRAFRKLAKQFHPDHNPGDAKAEERFKLVSQAYDVLGDEEKRKLYDQFGE | 0.0891 |
| HMKNYYSILGVTPDSSEAEIKSAYRRLARKFHPDVNPDGASRFKDISEAYETLSDAKKRFQYDTINGF | -0.0709 |
| HMKPATSITFIPSERPDLVEQLSKITFDKKDSLYENYINLNWLTFEAISVYMREGDIIGFST | -0.148 |
| HMKPDAAKREQLIDIALRLFSQQGIARTSLNAIAREAGVTPAMLHYYFNSREQLLDVMIEERFL | -3 |
| HMKPDIETQLKKYRYKVSVSKKIKPYMVFSDKTLSELLTKSPTNLKELEDINGFGPVKVQEYGAAILEILK | -1.19 |
| HMKPDSEFTSQDLWQNDLAGTGSAAYRRDKMGALLGIGYGNAKRFLERLNSYGVTRSEFDEALAQLGE | -0.188 |
| HMKPEDIALLEEIRDLLKEKKSVIVNLEYVNKDVARRIVDFISGGVFALNGHIQKVSNSIFLVAPMN | -0.00621 |
| HMKPMNNNDILRRLRYTFDLSDDKMMETFALGGYEANRSEISDWLKKDDHPEQKSLYDKSLSHFLNGFIV | -0.178 |

| Sequence | soluble fraction (log2) |
| --- | --- |
| HMKPPVQVIGKAVVTASSLNVRTGPGTGHGIITSLPRNTEVELLEQQGEWYKIRRGSTVGYVHGGYLKIN | -0.311 |
| HMKPRISMITLGVKDLNKSIEFYGGGLGFPRKKTEPEIAIFKLNGSWLSLYNRGLLAEDANVS | -0.184 |
| HMKPSKYTLAIDSIPVHVTRKQMKSIRLRVTPLGEVRVSAPYGVKDSEIVEMVRSRKLWIESQQRA | -2.34 |
| HMKPSTETLYATARINVRAAADTSAEKLGSIEMGEAVVRTGTDGDWSIIEYNGSTGYVKSEYLTANAGDAT | 0.232 |
| HMKPSVEIKVNGGTGAGVVKKGGSITVTANEPAEGKVFTGWQDESGKIVSTQKEYTFTVAEGTTLTAVYED | ≥ 1.04 |
| HMKPTGWVRGDMGVVDKGQLSITQGTVNVRSGPGLSYEILDQVRRGDRFPVIKSQSGWHNISM | 0.249 |
| HMKPTSLLGIERYLGSGLIRGVGPSTAKQIVEHFGMETMEVLTEHPERLQEVHGMGRKRWRQIAESFQEQQ | -0.869 |
| HMKPVTVINFVGMTEEKAMTEAEKLGLVVGASSSEYSDEPAGTVIRQSISVSTEAKTGDNIYFTVSKGPE | 0.677 |
| HMKQETLNEIGTKIRKLRESKNLSIQEFADKLEMEYNNVIRIEKGRTNFTIGTLVKIANSLEVNLKDI | -2.41 |
| HMKQFVVQYYGIDGEVINSVYKNGMSDLTSYEPEKIDGKNFKGWSLSEDSKKVIDENYRINSDVNLYAVYT | 0.758 |
| HMKQHPTIDLQIGQKLHYKEDVFEVTRFAKDKNGQDMVILKDPSIGSGIEIPWYRSKLEEIIESGQYKIT | 0.361 |
| HMKQIEEIIARYTNENTPLMMILSDVQREYGYIPLDVQELISEKTGIPVAEIYGVVTFYSFFSL | -0.676 |
| HMKQISQNIHRLRKEKGMSQEQLAQALHVTRQTVSAWERGIAQPSLDVLGQIAQLLGVEPERLLYGE | 0.288 |
| HMKQLQIPYSFAKRHGVLLRYEGDQAFIVRRDNTSMLALQEARRLLGHPAHYLLYSEQEFNQLLSASFA | -2.69 |
| HMKQLVVVPRVVSLSEGKAREDVGDRGLVVDRVEMDTLRTPYENTVTRQEPAADSRVPVGTRVTLWISPGV | 0.567 |
| HMKQNSDDGEIRKIIIEILDNNLDNVNKYKSGRTNVLDFFVGQVMKQTRGQANPELTRSILTEELSN | -0.169 |
| HMKQQTRAELLDEFAKAHAERGLYFNRDYEQGEIQALQPDKAREYLQSALEARTERQQASEQDR | 0.262 |
| HMKQTDQELAEMLRFRAAQRGLLMSDEVVNYVMTRVERSAKSLIMLLDRIDRAALAQARPVTIPLINEL | -0.523 |
| HMKQVEVPRLVGLTLREAQAVLGQVGLRIGLISRAALLASPREQIVEQIPVAGERNIATPYVNLLVNVP | -0.895 |

Reference: the domain aggregation screens of Martell et al. (2025)
